Experiments:
[1] = target: human FGFR1c/KLB cell surface receptor complex on iLite FGF21 reporter cells (human, UniProt P11362 22-822; Q86Z14 1-1044); test: cell-based or functional assay; as to Mean E max (%): reference of the scale not given here
human beta-Klotho (KLB) = target: T1, human beta-Klotho (KLB) (human, UniProt Q86Z14 53-997); test: BLI off-rate screen (Octet), Ab captured via Fc;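 also: antibody supernatants applied at 25 µg/mL, dissociation monitored over 1800 s in D-PBS with 0.1% BSA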
T1 construct: also called human KLB
T1 sequence (looked up): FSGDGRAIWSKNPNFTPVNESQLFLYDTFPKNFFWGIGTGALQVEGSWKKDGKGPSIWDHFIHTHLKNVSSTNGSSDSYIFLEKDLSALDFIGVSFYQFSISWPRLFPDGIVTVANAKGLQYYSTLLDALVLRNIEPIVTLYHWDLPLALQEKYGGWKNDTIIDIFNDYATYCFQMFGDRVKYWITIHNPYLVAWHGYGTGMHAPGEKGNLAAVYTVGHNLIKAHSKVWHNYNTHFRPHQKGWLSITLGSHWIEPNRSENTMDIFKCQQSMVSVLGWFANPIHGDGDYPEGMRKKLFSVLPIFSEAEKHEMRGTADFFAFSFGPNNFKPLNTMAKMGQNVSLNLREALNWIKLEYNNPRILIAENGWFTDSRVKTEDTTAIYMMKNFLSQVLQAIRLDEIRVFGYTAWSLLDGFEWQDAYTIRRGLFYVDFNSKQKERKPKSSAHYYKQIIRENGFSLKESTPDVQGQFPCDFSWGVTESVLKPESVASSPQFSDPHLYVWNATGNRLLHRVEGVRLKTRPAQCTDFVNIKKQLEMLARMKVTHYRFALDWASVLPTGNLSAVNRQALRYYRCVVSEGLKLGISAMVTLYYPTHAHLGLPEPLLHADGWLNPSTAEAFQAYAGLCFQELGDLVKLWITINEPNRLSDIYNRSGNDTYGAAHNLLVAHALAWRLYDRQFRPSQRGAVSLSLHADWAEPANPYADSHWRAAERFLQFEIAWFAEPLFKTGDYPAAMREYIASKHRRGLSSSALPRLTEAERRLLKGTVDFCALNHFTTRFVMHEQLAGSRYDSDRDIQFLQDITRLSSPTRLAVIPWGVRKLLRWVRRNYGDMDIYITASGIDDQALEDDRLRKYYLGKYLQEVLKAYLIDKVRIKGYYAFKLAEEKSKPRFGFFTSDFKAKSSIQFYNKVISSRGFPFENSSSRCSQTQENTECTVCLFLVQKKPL

human FGFR1c/KLB cell surface receptor complex on iLite FGF21 reporter cells, sequence (P11362 22-822, chain 1 of 2): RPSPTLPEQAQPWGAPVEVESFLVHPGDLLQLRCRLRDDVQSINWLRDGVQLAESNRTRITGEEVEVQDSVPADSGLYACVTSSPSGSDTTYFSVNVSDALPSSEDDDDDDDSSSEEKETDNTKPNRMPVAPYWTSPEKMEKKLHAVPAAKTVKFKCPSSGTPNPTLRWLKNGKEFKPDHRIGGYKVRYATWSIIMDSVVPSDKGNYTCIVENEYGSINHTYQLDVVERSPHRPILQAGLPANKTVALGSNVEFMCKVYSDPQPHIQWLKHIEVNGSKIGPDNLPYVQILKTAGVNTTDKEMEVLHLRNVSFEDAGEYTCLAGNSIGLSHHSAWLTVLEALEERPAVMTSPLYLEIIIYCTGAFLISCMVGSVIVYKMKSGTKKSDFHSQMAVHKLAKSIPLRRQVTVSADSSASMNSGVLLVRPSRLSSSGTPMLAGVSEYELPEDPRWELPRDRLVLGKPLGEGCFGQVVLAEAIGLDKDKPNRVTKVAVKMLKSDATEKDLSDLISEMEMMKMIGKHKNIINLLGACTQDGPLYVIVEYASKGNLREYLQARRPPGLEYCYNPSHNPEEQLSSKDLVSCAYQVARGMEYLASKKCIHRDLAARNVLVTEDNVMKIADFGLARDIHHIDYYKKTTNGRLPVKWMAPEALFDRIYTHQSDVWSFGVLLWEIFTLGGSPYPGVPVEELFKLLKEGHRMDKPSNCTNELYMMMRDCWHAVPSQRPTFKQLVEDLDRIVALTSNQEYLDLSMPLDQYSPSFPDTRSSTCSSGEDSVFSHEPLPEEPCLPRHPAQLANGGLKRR
human FGFR1c/KLB cell surface receptor complex on iLite FGF21 reporter cells, sequence (Q86Z14 whole entry, chain 2 of 2): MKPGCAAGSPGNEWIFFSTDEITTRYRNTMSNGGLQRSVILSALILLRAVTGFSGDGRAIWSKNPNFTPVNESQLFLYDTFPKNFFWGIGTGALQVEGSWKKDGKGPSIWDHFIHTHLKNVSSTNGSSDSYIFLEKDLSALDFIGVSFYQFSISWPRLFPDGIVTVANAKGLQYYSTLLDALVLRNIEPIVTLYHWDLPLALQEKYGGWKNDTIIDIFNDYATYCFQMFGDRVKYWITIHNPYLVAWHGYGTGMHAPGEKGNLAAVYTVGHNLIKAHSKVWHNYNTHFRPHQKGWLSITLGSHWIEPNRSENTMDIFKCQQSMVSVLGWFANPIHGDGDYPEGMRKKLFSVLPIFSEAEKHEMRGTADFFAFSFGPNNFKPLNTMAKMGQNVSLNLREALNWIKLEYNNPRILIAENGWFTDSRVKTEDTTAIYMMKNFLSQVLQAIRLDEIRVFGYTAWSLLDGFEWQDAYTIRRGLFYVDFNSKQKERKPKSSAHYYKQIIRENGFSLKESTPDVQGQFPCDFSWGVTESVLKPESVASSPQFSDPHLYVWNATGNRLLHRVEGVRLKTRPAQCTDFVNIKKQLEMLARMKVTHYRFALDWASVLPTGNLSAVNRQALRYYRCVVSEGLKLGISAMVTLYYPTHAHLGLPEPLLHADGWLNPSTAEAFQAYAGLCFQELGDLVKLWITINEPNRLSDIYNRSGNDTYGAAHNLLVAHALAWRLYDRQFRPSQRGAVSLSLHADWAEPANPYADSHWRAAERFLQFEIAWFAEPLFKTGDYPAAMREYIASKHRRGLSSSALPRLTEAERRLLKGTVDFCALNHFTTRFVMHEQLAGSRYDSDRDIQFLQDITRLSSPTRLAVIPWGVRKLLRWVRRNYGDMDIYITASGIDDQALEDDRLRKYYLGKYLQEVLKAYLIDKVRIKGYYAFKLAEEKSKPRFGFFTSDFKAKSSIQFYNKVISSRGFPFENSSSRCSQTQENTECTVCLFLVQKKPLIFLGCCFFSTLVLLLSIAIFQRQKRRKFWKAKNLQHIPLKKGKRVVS

Binder	Mean E max (%) [1] [%]	Mean EC50 [1] [pM]	koff (human beta-Klotho (KLB)) [s⁻¹]
16H7 variant, light chain G23A (antibody, human IgG4 S228P, lambda, V domains shown, IgG4 backbone) VH: not shown VL: SYVLTQPPSVSVAPGQTARITCAGNNIGSESVHWYQQKPGQAPVLVVYDDSDRPSGIPERFSGSNSGNTATLTISRVEAGDEADYYCQVWDGNSDHVVFGGGTKLTVLG	107	122	4e-05
16H7 variant, light chain G23L (antibody, human IgG4 S228P, lambda, V domains shown, IgG4 backbone) VH: not shown VL: SYVLTQPPSVSVAPGQTARITCLGNNIGSESVHWYQQKPGQAPVLVVYDDSDRPSGIPERFSGSNSGNTATLTISRVEAGDEADYYCQVWDGNSDHVVFGGGTKLTVLG	106	131	9.1e-05
16H7 variant, light chain G23S (antibody, human IgG4 S228P, lambda, V domains shown, IgG4 backbone) VH: not shown VL: SYVLTQPPSVSVAPGQTARITCSGNNIGSESVHWYQQKPGQAPVLVVYDDSDRPSGIPERFSGSNSGNTATLTISRVEAGDEADYYCQVWDGNSDHVVFGGGTKLTVLG	120	143	1e-07
16H7 variant, light chain G24N (antibody, human IgG4 S228P, lambda, V domains shown, IgG4 backbone) VH: not shown VL: SYVLTQPPSVSVAPGQTARITCGNNNIGSESVHWYQQKPGQAPVLVVYDDSDRPSGIPERFSGSNSGNTATLTISRVEAGDEADYYCQVWDGNSDHVVFGGGTKLTVLG	103	114	1.7e-05
16H7 variant, light chain G24M (antibody, human IgG4 S228P, lambda, V domains shown, IgG4 backbone) VH: not shown VL: SYVLTQPPSVSVAPGQTARITCGMNNIGSESVHWYQQKPGQAPVLVVYDDSDRPSGIPERFSGSNSGNTATLTISRVEAGDEADYYCQVWDGNSDHVVFGGGTKLTVLG	109	115	4.8e-05
16H7 variant, light chain G23M (antibody, human IgG4 S228P, lambda, V domains shown, IgG4 backbone) VH: not shown VL: SYVLTQPPSVSVAPGQTARITCMGNNIGSESVHWYQQKPGQAPVLVVYDDSDRPSGIPERFSGSNSGNTATLTISRVEAGDEADYYCQVWDGNSDHVVFGGGTKLTVLG	91	122	4.1e-05
16H7 variant, light chain G24E (antibody, human IgG4 S228P, lambda, V domains shown, IgG4 backbone) VH: not shown VL: SYVLTQPPSVSVAPGQTARITCGENNIGSESVHWYQQKPGQAPVLVVYDDSDRPSGIPERFSGSNSGNTATLTISRVEAGDEADYYCQVWDGNSDHVVFGGGTKLTVLG	112	118	2.7e-05
16H7 variant, light chain G24F (antibody, human IgG4 S228P, lambda, V domains shown, IgG4 backbone) VH: not shown VL: SYVLTQPPSVSVAPGQTARITCGFNNIGSESVHWYQQKPGQAPVLVVYDDSDRPSGIPERFSGSNSGNTATLTISRVEAGDEADYYCQVWDGNSDHVVFGGGTKLTVLG	107	151	2.3e-05
16H7 variant, light chain G23K (antibody, human IgG4 S228P, lambda, V domains shown, IgG4 backbone) VH: not shown VL: SYVLTQPPSVSVAPGQTARITCKGNNIGSESVHWYQQKPGQAPVLVVYDDSDRPSGIPERFSGSNSGNTATLTISRVEAGDEADYYCQVWDGNSDHVVFGGGTKLTVLG	90	104	3.9e-05
16H7 variant, light chain G24C (antibody, human IgG4 S228P, lambda, V domains shown, IgG4 backbone) VH: not shown VL: SYVLTQPPSVSVAPGQTARITCGCNNIGSESVHWYQQKPGQAPVLVVYDDSDRPSGIPERFSGSNSGNTATLTISRVEAGDEADYYCQVWDGNSDHVVFGGGTKLTVLG	104	106	2.2e-05
16H7 variant, light chain G23R (antibody, human IgG4 S228P, lambda, V domains shown, IgG4 backbone) VH: not shown VL: SYVLTQPPSVSVAPGQTARITCRGNNIGSESVHWYQQKPGQAPVLVVYDDSDRPSGIPERFSGSNSGNTATLTISRVEAGDEADYYCQVWDGNSDHVVFGGGTKLTVLG	103	135	3.1e-05
16H7 variant, light chain G23F (antibody, human IgG4 S228P, lambda, V domains shown, IgG4 backbone) VH: not shown VL: SYVLTQPPSVSVAPGQTARITCFGNNIGSESVHWYQQKPGQAPVLVVYDDSDRPSGIPERFSGSNSGNTATLTISRVEAGDEADYYCQVWDGNSDHVVFGGGTKLTVLG	98	109	5e-05
16H7 variant, light chain G23C (antibody, human IgG4 S228P, lambda, V domains shown, IgG4 backbone) VH: not shown VL: SYVLTQPPSVSVAPGQTARITCCGNNIGSESVHWYQQKPGQAPVLVVYDDSDRPSGIPERFSGSNSGNTATLTISRVEAGDEADYYCQVWDGNSDHVVFGGGTKLTVLG	108	87	4.1e-05
16H7 variant, light chain G24I (antibody, human IgG4 S228P, lambda, V domains shown, IgG4 backbone) VH: not shown VL: SYVLTQPPSVSVAPGQTARITCGINNIGSESVHWYQQKPGQAPVLVVYDDSDRPSGIPERFSGSNSGNTATLTISRVEAGDEADYYCQVWDGNSDHVVFGGGTKLTVLG	109	143	2.7e-05
16H7 variant, light chain G23N (antibody, human IgG4 S228P, lambda, V domains shown, IgG4 backbone) VH: not shown VL: SYVLTQPPSVSVAPGQTARITCNGNNIGSESVHWYQQKPGQAPVLVVYDDSDRPSGIPERFSGSNSGNTATLTISRVEAGDEADYYCQVWDGNSDHVVFGGGTKLTVLG	100	138	2.7e-05
16H7 variant, light chain G24L (antibody, human IgG4 S228P, lambda, V domains shown, IgG4 backbone) VH: not shown VL: SYVLTQPPSVSVAPGQTARITCGLNNIGSESVHWYQQKPGQAPVLVVYDDSDRPSGIPERFSGSNSGNTATLTISRVEAGDEADYYCQVWDGNSDHVVFGGGTKLTVLG	108	161	3.4e-05
16H7 variant, light chain G23V (antibody, human IgG4 S228P, lambda, V domains shown, IgG4 backbone) VH: not shown VL: SYVLTQPPSVSVAPGQTARITCVGNNIGSESVHWYQQKPGQAPVLVVYDDSDRPSGIPERFSGSNSGNTATLTISRVEAGDEADYYCQVWDGNSDHVVFGGGTKLTVLG	93	105	3.9e-05
16H7 variant, light chain G24K (antibody, human IgG4 S228P, lambda, V domains shown, IgG4 backbone) VH: not shown VL: SYVLTQPPSVSVAPGQTARITCGKNNIGSESVHWYQQKPGQAPVLVVYDDSDRPSGIPERFSGSNSGNTATLTISRVEAGDEADYYCQVWDGNSDHVVFGGGTKLTVLG	102	143	3.9e-05
16H7 variant, light chain G24A (antibody, human IgG4 S228P, lambda, V domains shown, IgG4 backbone) VH: not shown VL: SYVLTQPPSVSVAPGQTARITCGANNIGSESVHWYQQKPGQAPVLVVYDDSDRPSGIPERFSGSNSGNTATLTISRVEAGDEADYYCQVWDGNSDHVVFGGGTKLTVLG	95	94	3.6e-05
16H7 variant, light chain G24H (antibody, human IgG4 S228P, lambda, V domains shown, IgG4 backbone) VH: not shown VL: SYVLTQPPSVSVAPGQTARITCGHNNIGSESVHWYQQKPGQAPVLVVYDDSDRPSGIPERFSGSNSGNTATLTISRVEAGDEADYYCQVWDGNSDHVVFGGGTKLTVLG	99	125	2.7e-05
16H7 variant, light chain G23I (antibody, human IgG4 S228P, lambda, V domains shown, IgG4 backbone) VH: not shown VL: SYVLTQPPSVSVAPGQTARITCIGNNIGSESVHWYQQKPGQAPVLVVYDDSDRPSGIPERFSGSNSGNTATLTISRVEAGDEADYYCQVWDGNSDHVVFGGGTKLTVLG	99	128	2.9e-05
16H7 variant, light chain G23D (antibody, human IgG4 S228P, lambda, V domains shown, IgG4 backbone) VH: not shown VL: SYVLTQPPSVSVAPGQTARITCDGNNIGSESVHWYQQKPGQAPVLVVYDDSDRPSGIPERFSGSNSGNTATLTISRVEAGDEADYYCQVWDGNSDHVVFGGGTKLTVLG	108	104	2.2e-05
16H7 variant, light chain G23H (antibody, human IgG4 S228P, lambda, V domains shown, IgG4 backbone) VH: not shown VL: SYVLTQPPSVSVAPGQTARITCHGNNIGSESVHWYQQKPGQAPVLVVYDDSDRPSGIPERFSGSNSGNTATLTISRVEAGDEADYYCQVWDGNSDHVVFGGGTKLTVLG	95	96	5.2e-06
16H7 variant, light chain G23Y (antibody, human IgG4 S228P, lambda, V domains shown, IgG4 backbone) VH: not shown VL: SYVLTQPPSVSVAPGQTARITCYGNNIGSESVHWYQQKPGQAPVLVVYDDSDRPSGIPERFSGSNSGNTATLTISRVEAGDEADYYCQVWDGNSDHVVFGGGTKLTVLG	107	124	4.2e-05
16H7 variant, light chain G23T (antibody, human IgG4 S228P, lambda, V domains shown, IgG4 backbone) VH: not shown VL: SYVLTQPPSVSVAPGQTARITCTGNNIGSESVHWYQQKPGQAPVLVVYDDSDRPSGIPERFSGSNSGNTATLTISRVEAGDEADYYCQVWDGNSDHVVFGGGTKLTVLG	112	105	1.5e-05
16H7 variant, light chain G23P (antibody, human IgG4 S228P, lambda, V domains shown, IgG4 backbone) VH: not shown VL: SYVLTQPPSVSVAPGQTARITCPGNNIGSESVHWYQQKPGQAPVLVVYDDSDRPSGIPERFSGSNSGNTATLTISRVEAGDEADYYCQVWDGNSDHVVFGGGTKLTVLG	101	117	3.8e-05
